From paper PMC10397247

Columns and labels:
[1] = target: T1, P5A; assay: two-hybrid library CCNG1;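 note: natural log of median RNA to DNA barcode read ratio; higher means stronger binding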
T1 chain: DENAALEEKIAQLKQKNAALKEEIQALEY

[2] = target: T2, P6A; assay: two-hybrid library CCNG1; details: mean of both orientations;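 note: natural log of median RNA to DNA barcode read ratio; higher means stronger binding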
T2 chain: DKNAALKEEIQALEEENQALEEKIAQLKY

[3] = target: T3, P7A; assay: two-hybrid library CCNG1;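 note: natural log of median RNA to DNA barcode read ratio; higher means stronger binding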
T3 chain: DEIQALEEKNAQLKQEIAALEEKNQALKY

[4] = target: T4, P8A; assay: two-hybrid library CCNG1;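 note: natural log of median RNA to DNA barcode read ratio; higher means stronger binding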
T4 chain: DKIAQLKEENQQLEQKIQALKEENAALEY

[5] = target: T5, P9A; assay: two-hybrid library CCNG1;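 note: natural log of median RNA to DNA barcode read ratio; higher means stronger binding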
T5 chain: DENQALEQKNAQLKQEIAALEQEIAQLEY

[6] = target: T6, 4H3175-bH; assay: two-hybrid library CCNG1;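 note: natural log of median RNA to DNA barcode read ratio; higher means stronger binding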
T6 chain: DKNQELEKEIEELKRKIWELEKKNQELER

[7] = target: T7, 4H3277-bH; assay: two-hybrid library CCNG1
T7 chain: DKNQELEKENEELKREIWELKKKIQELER

[8] = target: T8, 4H3298-bH; assay: two-hybrid library CCNG1
T8 chain: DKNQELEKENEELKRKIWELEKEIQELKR

[9] = target: T9, 4H3462-bH; assay: two-hybrid library CCNG1
T9 chain: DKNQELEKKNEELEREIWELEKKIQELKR

[10] = target: T10, 4H3497-bH; assay: two-hybrid library CCNG1
T10 chain: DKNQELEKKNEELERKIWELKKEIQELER

[11] = target: T11, 4H3613-bH; assay: two-hybrid library CCNG1
T11 chain: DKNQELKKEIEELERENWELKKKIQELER

[12] = target: T12, 4H3628-bH; assay: two-hybrid library CCNG1
T12 chain: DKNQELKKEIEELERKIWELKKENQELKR

[13] = target: T13, 4H3926-bH; assay: two-hybrid library CCNG1
T13 chain: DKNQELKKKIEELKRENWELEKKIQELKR

[14] = target: T14, 4H591-bH; assay: two-hybrid library CCNG1
T14 chain: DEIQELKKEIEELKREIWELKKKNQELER

[15] = target: T15, 4H626-bH; assay: two-hybrid library CCNG1
T15 chain: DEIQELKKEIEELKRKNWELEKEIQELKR

[16] = target: T16, 4H906-bH; assay: two-hybrid library CCNG1
T16 chain: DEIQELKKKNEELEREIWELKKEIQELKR

[17] = target: T17, 4H918-bH; assay: two-hybrid library CCNG1
T17 chain: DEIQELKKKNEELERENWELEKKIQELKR

[18] = target: T18, 4H235-AA; assay: two-hybrid library CCmax
T18 chain: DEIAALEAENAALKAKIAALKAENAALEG

[19] = target: T19, 4H249-AA; assay: two-hybrid library CCmax; details: mean of both orientations
T19 chain: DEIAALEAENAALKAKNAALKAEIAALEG

[20] = target: T20, 4H2580-AA; assay: two-hybrid library CCmax; details: mean of both orientations
T20 chain: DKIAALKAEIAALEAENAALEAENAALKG

[21] = target: T21, 4H2604-AA; assay: two-hybrid library CCmax; details: mean of both orientations
T21 chain: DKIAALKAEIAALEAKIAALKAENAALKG

[22] = target: T22, 4H2621-AA; assay: two-hybrid library CCmax; details: mean of both orientations
T22 chain: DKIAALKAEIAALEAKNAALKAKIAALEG

[23] = target: T23, 4H2760-AA; assay: two-hybrid library CCmax; details: mean of both orientations
T23 chain: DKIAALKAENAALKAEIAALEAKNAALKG

[24] = target: T24, 4H2774-AA; assay: two-hybrid library CCmax; details: mean of both orientations
T24 chain: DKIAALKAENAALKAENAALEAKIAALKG

[25] = target: T25, 4H2903-AA; assay: two-hybrid library CCmax; details: mean of both orientations
T25 chain: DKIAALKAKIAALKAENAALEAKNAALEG

[26] = target: T26, 4H2947-AA; assay: two-hybrid library CCmax; details: mean of both orientations
T26 chain: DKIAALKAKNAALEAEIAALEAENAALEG

[27] = target: T27, 4H2961-AA; assay: two-hybrid library CCmax; details: mean of both orientations
T27 chain: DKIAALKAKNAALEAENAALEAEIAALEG

[28] = target: T28, 4H3049-AA; assay: two-hybrid library CCmax; details: mean of both orientations
T28 chain: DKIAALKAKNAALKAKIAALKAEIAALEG

[29] = target: T29, 4H3094-AA; assay: two-hybrid library CCmax; details: mean of both orientations
T29 chain: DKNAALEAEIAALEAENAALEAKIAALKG

[30] = target: T30, 4H324-AA; assay: two-hybrid library CCmax; details: mean of both orientations
T30 chain: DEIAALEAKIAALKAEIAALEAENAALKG

[31] = target: T31, 4H341-AA; assay: two-hybrid library CCmax; details: mean of both orientations
T31 chain: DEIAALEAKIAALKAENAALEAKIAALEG

[32] = target: T32, 4H3449-AA; assay: two-hybrid library CCmax; details: mean of both orientations
T32 chain: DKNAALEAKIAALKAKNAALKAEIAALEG

[33] = target: T33, 4H3619-AA; assay: two-hybrid library CCmax; details: mean of both orientations
T33 chain: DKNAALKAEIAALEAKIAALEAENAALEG

[34] = target: T34, 4H3629-AA; assay: two-hybrid library CCmax; details: mean of both orientations
T34 chain: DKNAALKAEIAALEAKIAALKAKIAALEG

[35] = target: T35, 4H3777-AA; assay: two-hybrid library CCmax; details: mean of both orientations
T35 chain: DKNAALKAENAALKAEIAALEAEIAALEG

[36] = target: T36, 4H380-AA; assay: two-hybrid library CCmax; details: mean of both orientations
T36 chain: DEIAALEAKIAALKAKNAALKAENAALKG

[37] = target: T37, 4H3915-AA; assay: two-hybrid library CCmax; details: mean of both orientations
T37 chain: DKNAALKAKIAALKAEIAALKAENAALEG

[38] = target: T38, 4H3974-AA; assay: two-hybrid library CCmax; details: mean of both orientations
T38 chain: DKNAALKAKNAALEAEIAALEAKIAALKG

[39] = target: T39, 4H432-AA; assay: two-hybrid library CCmax; details: mean of both orientations
T39 chain: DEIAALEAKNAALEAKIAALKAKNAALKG

[40] = target: T40, 4H446-AA; assay: two-hybrid library CCmax; details: mean of both orientations
T40 chain: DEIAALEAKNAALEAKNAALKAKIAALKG

[41] = target: T41, 4H63-AA; assay: two-hybrid library CCmax; details: mean of both orientations
T41 chain: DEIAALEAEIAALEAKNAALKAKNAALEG

[42] = target: T42, 4H3354-bH; assay: two-hybrid library CCNG1
T42 chain: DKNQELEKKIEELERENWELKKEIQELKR

[43] = target: T43, 4H338-bH; assay: two-hybrid library CCNG1
T43 chain: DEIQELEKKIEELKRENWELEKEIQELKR

[44] = target: T44, 4H3427-bH; assay: two-hybrid library CCNG1
T44 chain: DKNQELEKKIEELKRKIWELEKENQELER

[45] = target: T45, 4H3782-bH; assay: two-hybrid library CCNG1
T45 chain: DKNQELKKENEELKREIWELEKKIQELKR

[46] = target: T46, 4H3855-bH; assay: two-hybrid library CCNG1
T46 chain: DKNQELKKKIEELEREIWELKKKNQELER

[47] = target: T47, 4H4001-bH; assay: two-hybrid library CCNG1
T47 chain: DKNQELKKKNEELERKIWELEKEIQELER

[48] = target: T48, 4H454-bH; assay: two-hybrid library CCNG1
T48 chain: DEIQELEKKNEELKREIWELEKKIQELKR

[49] = target: T49, 4H496-bN; assay: two-hybrid library CCNG1
T49 chain: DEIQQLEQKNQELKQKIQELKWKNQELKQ

[50] = target: T50, 4H568-bH; assay: two-hybrid library CCNG1
T50 chain: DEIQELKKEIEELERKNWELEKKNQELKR

[51] = target: T51, 4H607-bH; assay: two-hybrid library CCNG1
T51 chain: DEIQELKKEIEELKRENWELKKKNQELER

[52] = target: T52, 4H687-bH; assay: two-hybrid library CCNG1
T52 chain: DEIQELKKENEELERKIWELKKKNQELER

[53] = target: T53, 4H717-bH; assay: two-hybrid library CCNG1
T53 chain: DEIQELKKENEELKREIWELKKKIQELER

[54] = target: T54, 4H72-bH; assay: two-hybrid library CCNG1
T54 chain: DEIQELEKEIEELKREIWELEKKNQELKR

[55] = target: T55, 4H754-bH; assay: two-hybrid library CCNG1
T55 chain: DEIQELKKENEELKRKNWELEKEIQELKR

[56] = target: T56, 4H797-bH; assay: two-hybrid library CCNG1
T56 chain: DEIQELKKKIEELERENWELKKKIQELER

[57] = target: T57, 4H883-bH; assay: two-hybrid library CCNG1
T57 chain: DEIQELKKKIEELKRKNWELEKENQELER

[58] = target: T58, 4H908-bH; assay: two-hybrid library CCNG1
T58 chain: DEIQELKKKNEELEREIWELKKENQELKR

[59] = target: T59, 4H953-bH; assay: two-hybrid library CCNG1
T59 chain: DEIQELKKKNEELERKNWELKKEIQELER

[60] = target: T60, 4H967-bH; assay: two-hybrid library CCNG1
T60 chain: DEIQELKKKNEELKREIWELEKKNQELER

[61] = target: T61, O2; assay: two-hybrid library CC0; details: mean of both orientations
T61 chain: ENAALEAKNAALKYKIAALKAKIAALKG

[62] = target: T62, O3; assay: two-hybrid library CC0; details: mean of both orientations
T62 chain: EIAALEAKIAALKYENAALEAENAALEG

[63] = target: T63, O4; assay: two-hybrid library CC0; details: mean of both orientations
T63 chain: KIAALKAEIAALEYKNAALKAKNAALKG

[64] = target: T64, O5; assay: two-hybrid library CC0; details: mean of both orientations
T64 chain: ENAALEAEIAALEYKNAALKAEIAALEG

[65] = target: T65, O6; assay: two-hybrid library CC0; details: mean of both orientations
T65 chain: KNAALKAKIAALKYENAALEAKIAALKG

[66] = target: T66, O7; assay: two-hybrid library CC0; details: mean of both orientations
T66 chain: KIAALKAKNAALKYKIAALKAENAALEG

[67] = target: T67, O8; assay: two-hybrid library CC0; details: mean of both orientations
T67 chain: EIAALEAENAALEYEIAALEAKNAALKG

[68] = target: T68, O9; assay: two-hybrid library CC0; details: mean of both orientations
T68 chain: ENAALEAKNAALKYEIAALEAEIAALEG

DENAALEEKIAQLKQKNAALKEEIQALEY [P5A]
interaction score [1]: -1.41 | interaction score [2]: 1.19 | interaction score [3]: -1.31 | interaction score [4]: -1.04 | interaction score [5]: -1.38

DKNQELEKEIEELKRKIWELEKKNQELER [4H3175-bH]
interaction score [6]: 0.103 | interaction score [7]: -0.0103 | interaction score [8]: -0.132 | interaction score [9]: 0.891 | interaction score [10]: 0.402 | interaction score [11]: -0.475 | interaction score [12]: -0.799 | interaction score [13]: -0.189 | interaction score [14]: -2.15 | interaction score [15]: -1.62 | interaction score [16]: 0.787 | interaction score [17]: -1.69

DEIAALEAENAALKAKIAALKAENAALEG [4H235-AA]
interaction score [18]: -1.14 | interaction score [19]: -1.7 | interaction score [20]: -0.865 | interaction score [21]: -1.14 | interaction score [22]: -0.985 | interaction score [23]: 2.27 | interaction score [24]: 1.48 | interaction score [25]: -1.68 | interaction score [26]: 0.136 | interaction score [27]: -1.27 | interaction score [28]: -0.98 | interaction score [29]: 0.0844 | interaction score [30]: -1.12 | interaction score [31]: -0.261 | interaction score [32]: 0.816 | interaction score [33]: -1.48 | interaction score [34]: -1.09 | interaction score [35]: 0.00925 | interaction score [36]: -1.71 | interaction score [37]: -1.49 | interaction score [38]: -0.571 | interaction score [39]: -0.27 | interaction score [40]: -1.78 | interaction score [41]: -1.28

DKNQELEKKIEELERENWELKKEIQELKR [4H3354-bH]
interaction score [42]: 1.31 | interaction score [43]: 0.838 | interaction score [44]: 0.568 | interaction score [45]: -0.062 | interaction score [46]: -0.383 | interaction score [47]: -0.37 | interaction score [48]: 0.274 | interaction score [49]: 0.755 | interaction score [50]: -1.08 | interaction score [51]: -1.77 | interaction score [52]: -2.6 | interaction score [53]: 0.648 | interaction score [54]: -1.11 | interaction score [55]: -0.2 | interaction score [56]: 0.357 | interaction score [57]: -0.344 | interaction score [58]: -1.61 | interaction score [17]: 0.89 | interaction score [59]: -1.49 | interaction score [60]: -0.105

ENAALEAKNAALKYKIAALKAKIAALKG [O2]
interaction score [61]: -2.68 | interaction score [62]: -2.68 | interaction score [63]: -2.74 | interaction score [64]: -2.66 | interaction score [65]: -2.73 | interaction score [66]: -2.83 | interaction score [67]: -2.05 | interaction score [68]: -1.04
